Test results taken from patent publication US20180011085A1.

Target: purified recombinant M1 protein from influenza virus labeled with His-tag (influenza virus)
Assay: Western blot of 0.1-10 ng M1-HisTag, HRP-conjugated antibody 1:2000, chemiluminescence

antibody against His-tag conjugated with horseradish peroxidase (Sigma, #A7058-1VL)
limit of detection: 500 pg
